Measurements published in PMC9482650, “Quantitative fragmentomics allow affinity mapping of interactomes” (Nature Communications, 2022).

Assays:
Assay in all cases: holdup assay
Parameters in all cases: key: below the threshold = too weak to quantify, mostly under pKd 3.1 to 4
APBA3_1, O96018 = target: T1, APBA3_1, O96018
T1 sequence (O96018 389-490, limits assumed, looked up): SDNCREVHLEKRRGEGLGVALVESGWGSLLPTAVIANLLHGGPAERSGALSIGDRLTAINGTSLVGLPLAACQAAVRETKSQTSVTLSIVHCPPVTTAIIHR

ARHGAP21, Q5T5U3 = target: T2, ARHGAP21, Q5T5U3
T2 sequence (Q5T5U3 45-169, limits assumed, looked up): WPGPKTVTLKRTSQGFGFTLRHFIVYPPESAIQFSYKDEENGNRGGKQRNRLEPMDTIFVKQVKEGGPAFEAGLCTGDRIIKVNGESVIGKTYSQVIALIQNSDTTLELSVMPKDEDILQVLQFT

DLG3_1, Q92796 = target: T3, DLG3_1, Q92796
T3 sequence (Q92796 125-227, limits assumed, looked up): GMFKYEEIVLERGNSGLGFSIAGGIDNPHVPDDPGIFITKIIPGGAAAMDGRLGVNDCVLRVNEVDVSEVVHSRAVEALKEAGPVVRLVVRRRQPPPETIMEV

DLG4_3, P78352 = target: DLG4_3, P78352
Sequence of DLG4_3, P78352 (P78352 306-403): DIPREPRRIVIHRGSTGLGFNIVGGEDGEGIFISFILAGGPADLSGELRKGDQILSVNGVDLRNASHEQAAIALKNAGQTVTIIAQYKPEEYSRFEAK

GOPC, Q9HD26 = target: GOPC, Q9HD26
GRIP2_4, Q9C0E4 = target: GRIP2_4, Q9C0E4
Sequence of GRIP2_4, Q9C0E4 (Q9C0E4 446-548): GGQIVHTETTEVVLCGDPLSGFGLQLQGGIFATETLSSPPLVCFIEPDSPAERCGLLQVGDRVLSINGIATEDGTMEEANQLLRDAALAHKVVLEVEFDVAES

HTRA4, P83105 = target: T4, HTRA4, P83105
T4 sequence (P83105 378-476, limits assumed, looked up): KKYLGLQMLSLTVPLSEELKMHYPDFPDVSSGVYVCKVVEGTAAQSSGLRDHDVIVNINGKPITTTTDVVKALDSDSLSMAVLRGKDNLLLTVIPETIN

IL16_3, Q14005 = target: IL16_3, Q14005
Sequence of IL16_3, Q14005 (Q14005 1107-1207): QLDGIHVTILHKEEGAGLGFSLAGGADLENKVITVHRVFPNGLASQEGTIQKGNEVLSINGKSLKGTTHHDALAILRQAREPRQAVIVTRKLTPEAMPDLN

Inadl_10, Q8NI35 = target: Inadl_10, Q8NI35
Sequence of Inadl_10, Q8NI35 (Q8NI35 1673-1763): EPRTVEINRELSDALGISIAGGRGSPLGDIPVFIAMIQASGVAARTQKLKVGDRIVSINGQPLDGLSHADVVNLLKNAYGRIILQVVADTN

Inadl_6, Q8NI35 = target: Inadl_6, Q8NI35
Sequence of Inadl_6, Q8NI35 (Q8NI35 1058-1167): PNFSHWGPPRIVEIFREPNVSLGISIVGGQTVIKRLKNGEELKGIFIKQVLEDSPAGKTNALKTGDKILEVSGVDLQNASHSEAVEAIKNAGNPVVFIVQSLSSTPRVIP

LAP2, Q96RT1 = target: LAP2, Q96RT1
Sequence of LAP2, Q96RT1 (Q96RT1 other isoform, or with tags, fused parts or gaps): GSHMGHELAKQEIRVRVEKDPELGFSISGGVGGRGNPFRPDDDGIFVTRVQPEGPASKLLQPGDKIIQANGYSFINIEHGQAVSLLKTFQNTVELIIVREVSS

LNX1_3, Q8TBB1 = target: LNX1_3, Q8TBB1
Sequence of LNX1_3, Q8TBB1 (Q8TBB1 500-596): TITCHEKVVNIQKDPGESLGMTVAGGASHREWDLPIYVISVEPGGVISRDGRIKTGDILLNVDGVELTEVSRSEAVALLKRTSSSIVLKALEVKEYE

MAGI3_2, Q5TCQ9 = target: MAGI3_2, Q5TCQ9
Sequence of MAGI3_2, Q5TCQ9 (Q5TCQ9 398-503): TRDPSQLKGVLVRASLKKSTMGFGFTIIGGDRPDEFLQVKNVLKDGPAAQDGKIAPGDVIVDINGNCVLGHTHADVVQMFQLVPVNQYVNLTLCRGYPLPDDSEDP

MPP2, Q14168 = target: T5, MPP2, Q14168
T5 sequence (Q14168 180-250, limits assumed, looked up): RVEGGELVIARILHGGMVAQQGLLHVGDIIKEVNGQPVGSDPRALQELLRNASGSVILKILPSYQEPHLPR

NHERF3_1, Q5T2W1 = target: T6, NHERF3_1, Q5T2W1
T6 sequence (Q5T2W1 4-100, limits assumed, looked up): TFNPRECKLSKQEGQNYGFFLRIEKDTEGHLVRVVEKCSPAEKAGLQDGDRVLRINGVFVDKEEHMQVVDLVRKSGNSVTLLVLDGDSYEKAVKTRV

NHERF4_2, Q86UT5 = target: NHERF4_2, Q86UT5
Sequence of NHERF4_2, Q86UT5 (Q86UT5 220-308): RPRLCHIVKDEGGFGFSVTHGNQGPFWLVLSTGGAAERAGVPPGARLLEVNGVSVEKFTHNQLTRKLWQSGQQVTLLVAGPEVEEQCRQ

PARD3_3, Q8TEW0 = target: PARD3_3, Q8TEW0
Sequence of PARD3_3, Q8TEW0 (Q8TEW0 582-685): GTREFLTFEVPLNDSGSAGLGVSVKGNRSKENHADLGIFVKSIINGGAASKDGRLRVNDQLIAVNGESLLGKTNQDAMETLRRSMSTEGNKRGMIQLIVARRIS

PDZRN4_1, Q6ZMN7 = target: PDZRN4_1, Q6ZMN7
Sequence of PDZRN4_1, Q6ZMN7 (Q6ZMN7 213-318): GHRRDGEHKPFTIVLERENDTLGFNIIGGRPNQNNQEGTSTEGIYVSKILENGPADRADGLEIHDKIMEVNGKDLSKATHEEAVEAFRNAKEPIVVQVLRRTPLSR

PTPN13_1, Q12923 = target: T7, PTPN13_1, Q12923
T7 sequence (Q12923 1088-1188, limits assumed, looked up): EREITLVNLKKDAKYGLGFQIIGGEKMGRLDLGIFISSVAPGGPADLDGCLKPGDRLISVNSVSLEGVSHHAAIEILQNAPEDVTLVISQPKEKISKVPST

RAPGEF6, Q8TEU7 = target: T8, RAPGEF6, Q8TEU7
T8 sequence (Q8TEU7 525-625, limits assumed, looked up): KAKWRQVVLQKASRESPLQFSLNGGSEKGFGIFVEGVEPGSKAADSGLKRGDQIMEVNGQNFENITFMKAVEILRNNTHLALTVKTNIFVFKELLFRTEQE

SCRIB_3, Q14160 = target: SCRIB_3, Q14160
Sequence of SCRIB_3, Q14160 (Q14160 999-1103): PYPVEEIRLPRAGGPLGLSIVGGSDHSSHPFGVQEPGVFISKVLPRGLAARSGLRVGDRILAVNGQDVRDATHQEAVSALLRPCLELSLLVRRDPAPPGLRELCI

SHANK1, Q9Y566 = target: T9, SHANK1, Q9Y566
T9 sequence (Q9Y566 658-767, limits assumed, looked up): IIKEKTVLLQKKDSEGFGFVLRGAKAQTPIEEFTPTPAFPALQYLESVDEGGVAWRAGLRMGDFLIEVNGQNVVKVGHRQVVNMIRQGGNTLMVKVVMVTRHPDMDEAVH

SNTG2, Q9NY99 = target: T10, SNTG2, Q9NY99
T10 sequence (Q9NY99 68-166, limits assumed, looked up): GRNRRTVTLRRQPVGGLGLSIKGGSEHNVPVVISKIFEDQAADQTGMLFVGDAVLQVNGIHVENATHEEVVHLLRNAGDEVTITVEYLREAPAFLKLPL

TIAM2, Q8IVF5 = target: T11, TIAM2, Q8IVF5
T11 sequence (Q8IVF5 885-986, limits assumed, looked up): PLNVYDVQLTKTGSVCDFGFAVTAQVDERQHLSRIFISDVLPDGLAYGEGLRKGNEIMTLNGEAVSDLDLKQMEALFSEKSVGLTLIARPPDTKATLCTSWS

TX1BP3, O14907 = target: T12, TX1BP3, O14907
T12 sequence (O14907 10-122, limits assumed, looked up): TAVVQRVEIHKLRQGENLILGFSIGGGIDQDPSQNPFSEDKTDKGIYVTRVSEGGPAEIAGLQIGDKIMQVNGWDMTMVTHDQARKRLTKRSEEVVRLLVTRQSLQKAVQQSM

[1] = plain residues with an end cap or a label only (N-terminal biotin on a linker: gsgsgs; C-terminal amide)
[2] = plain residues with an end cap or a label only (N-terminal biotin on a linker: ahx)
[3] = plain residues with an end cap or a label only (N-terminal biotin on a linker: ttds)

B1: AXIN1_int, O15169 (peptide)
chain: TLSLTDSSVDGIPPYR
pKd (APBA3_1, O96018; [1]): below the threshold
pKd (ARHGAP21, Q5T5U3; [1]): below the threshold
pKd (DLG3_1, Q92796; [1]): below the threshold
pKd (DLG4_3, P78352; [1]): below the threshold
pKd (GOPC, Q9HD26; [1]): below the threshold
pKd (GRIP2_4, Q9C0E4; [1]): below the threshold
pKd (HTRA4, P83105; [1]): below the threshold
pKd (IL16_3, Q14005; [1]): below the threshold
pKd (Inadl_10, Q8NI35; [1]): below the threshold
pKd (Inadl_6, Q8NI35; [1]): below the threshold
pKd (LAP2, Q96RT1; [1]): below the threshold
pKd (LNX1_3, Q8TBB1; [1]): below the threshold
pKd (MAGI3_2, Q5TCQ9; [1]): below the threshold
pKd (MPP2, Q14168; [1]): below the threshold
pKd (NHERF3_1, Q5T2W1; [1]): below the threshold
pKd (NHERF4_2, Q86UT5; [1]): below the threshold
pKd (PARD3_3, Q8TEW0; [1]): below the threshold
pKd (PDZRN4_1, Q6ZMN7; [1]): below the threshold
pKd (PTPN13_1, Q12923; [1]): 3.5
pKd (RAPGEF6, Q8TEU7; [1]): below the threshold
pKd (SCRIB_3, Q14160; [1]): below the threshold
pKd (SHANK1, Q9Y566; [1]): below the threshold
pKd (SNTG2, Q9NY99; [1]): below the threshold
pKd (TIAM2, Q8IVF5; [1]): 3.9
pKd (TX1BP3, O14907; [1]): 3.78

B2: CNKSR2, Q8WXI2 (peptide)
chain: HTHSYIETHV
pKd (APBA3_1, O96018; [2]): below the threshold
pKd (ARHGAP21, Q5T5U3; [2]): below the threshold
pKd (DLG3_1, Q92796; [2]): 4.08
pKd (DLG4_3, P78352; [2]): 3.74
pKd (GOPC, Q9HD26; [2]): below the threshold
pKd (GRIP2_4, Q9C0E4; [2]): below the threshold
pKd (HTRA4, P83105; [2]): 3.9
pKd (IL16_3, Q14005; [2]): below the threshold
pKd (Inadl_10, Q8NI35; [2]): below the threshold
pKd (Inadl_6, Q8NI35; [2]): 4.22
pKd (LAP2, Q96RT1; [2]): 5.51
pKd (LNX1_3, Q8TBB1; [2]): below the threshold
pKd (MAGI3_2, Q5TCQ9; [2]): 4.69
pKd (MPP2, Q14168; [2]): below the threshold
pKd (NHERF3_1, Q5T2W1; [2]): 5.14
pKd (NHERF4_2, Q86UT5; [2]): below the threshold
pKd (PARD3_3, Q8TEW0; [2]): below the threshold
pKd (PDZRN4_1, Q6ZMN7; [2]): below the threshold
pKd (PTPN13_1, Q12923; [2]): below the threshold
pKd (RAPGEF6, Q8TEU7; [2]): below the threshold
pKd (SCRIB_3, Q14160; [2]): 5.11
pKd (SHANK1, Q9Y566; [2]): 4.24
pKd (SNTG2, Q9NY99; [2]): 4.67
pKd (TIAM2, Q8IVF5; [2]): 3.81
pKd (TX1BP3, O14907; [2]): 5.47

B3: LRP4, O75096 (peptide)
chain: ERKLSSESQV
pKd (APBA3_1, O96018; [3]): below the threshold
pKd (ARHGAP21, Q5T5U3; [3]): below the threshold
pKd (DLG3_1, Q92796; [3]): 3.81
pKd (DLG4_3, P78352; [3]): below the threshold
pKd (GOPC, Q9HD26; [3]): below the threshold
pKd (GRIP2_4, Q9C0E4; [3]): below the threshold
pKd (HTRA4, P83105; [3]): below the threshold
pKd (IL16_3, Q14005; [3]): below the threshold
pKd (Inadl_10, Q8NI35; [3]): below the threshold
pKd (Inadl_6, Q8NI35; [3]): below the threshold
pKd (LAP2, Q96RT1; [3]): 3.74
pKd (LNX1_3, Q8TBB1; [3]): below the threshold
pKd (MAGI3_2, Q5TCQ9; [3]): 5.17
pKd (MPP2, Q14168; [3]): below the threshold
pKd (NHERF3_1, Q5T2W1; [3]): below the threshold
pKd (NHERF4_2, Q86UT5; [3]): below the threshold
pKd (PARD3_3, Q8TEW0; [3]): below the threshold
pKd (PDZRN4_1, Q6ZMN7; [3]): below the threshold
pKd (PTPN13_1, Q12923; [3]): below the threshold
pKd (RAPGEF6, Q8TEU7; [3]): below the threshold
pKd (SCRIB_3, Q14160; [3]): 3.93
pKd (SHANK1, Q9Y566; [3]): below the threshold
pKd (SNTG2, Q9NY99; [3]): 4.1
pKd (TIAM2, Q8IVF5; [3]): below the threshold
pKd (TX1BP3, O14907; [3]): 4.27

B4: DLGAP4, Q9Y2H0 (peptide)
chain: IYVPEAQTRL
pKd (APBA3_1, O96018; [3]): below the threshold
pKd (ARHGAP21, Q5T5U3; [3]): below the threshold
pKd (DLG3_1, Q92796; [3]): below the threshold
pKd (DLG4_3, P78352; [3]): below the threshold
pKd (GOPC, Q9HD26; [3]): 4.21
pKd (GRIP2_4, Q9C0E4; [3]): below the threshold
pKd (HTRA4, P83105; [3]): below the threshold
pKd (IL16_3, Q14005; [3]): below the threshold
pKd (Inadl_10, Q8NI35; [3]): below the threshold
pKd (Inadl_6, Q8NI35; [3]): below the threshold
pKd (LAP2, Q96RT1; [3]): below the threshold
pKd (LNX1_3, Q8TBB1; [3]): below the threshold
pKd (MAGI3_2, Q5TCQ9; [3]): below the threshold
pKd (MPP2, Q14168; [3]): below the threshold
pKd (NHERF3_1, Q5T2W1; [3]): 5.25
pKd (NHERF4_2, Q86UT5; [3]): below the threshold
pKd (PARD3_3, Q8TEW0; [3]): 3.87
pKd (PDZRN4_1, Q6ZMN7; [3]): 4.08
pKd (PTPN13_1, Q12923; [3]): below the threshold
pKd (RAPGEF6, Q8TEU7; [3]): below the threshold
pKd (SCRIB_3, Q14160; [3]): 3.98
pKd (SHANK1, Q9Y566; [3]): 5.54
pKd (SNTG2, Q9NY99; [3]): 4.67
pKd (TIAM2, Q8IVF5; [3]): below the threshold
pKd (TX1BP3, O14907; [3]): below the threshold
